Test results taken from patent US8691944B2, “Fibronectin polypeptides and methods of use” (The Research Foundation for the State University of New York, priority 2005, dated 2014).
Where no end group is shown, it is not given here.

Experiments:
PDGF-BB [1] = molecular target: T1, PDGF-BB (Homo sapiens, UniProt P01127); assay: Surface plasmon resonance kinetic binding of PDGF-BB to FN domains
From the text: VEGF, TGF-β1, PDGF-BB and FGF-2 bound IIICS with similar affinities (KD˜10^−7 M). […] The tested biological activities of GFs bound to a FN functional domain were retained or enhanced. […] In addition, our studies provide important information regarding the delivery of GFs and the sequestering of GFs, as appropriate, for therapeutic (e.g., surgical) or aesthetic indications, including wound healing treatments (where an aim is GF delivery) and cancer treatments (where an aim is GF sequestration). Where FN fragments are used to deliver GFs, they may be described as maintaining, activating, stabilizing or enhancing GF activity. […]

VEGF = assay: Plasmon resonance binding of VEGF to FN domains
From the text: (§1) VEGF, TGF-β1, PDGF-BB and FGF-2 bound IIICS with similar affinities (KD˜10^−7 M). […] The tested biological activities of GFs bound to a FN functional domain were retained or enhanced. […] In addition, our studies provide important information regarding the delivery of GFs and the sequestering of GFs, as appropriate, for therapeutic (e.g., surgical) or aesthetic indications, including wound healing treatments (where an aim is GF delivery) and cancer treatments (where an aim is GF sequestration). Where FN fragments are used to deliver GFs, they may be described as maintaining, activating, stabilizing or enhancing GF activity.

TGF-β1 [2] = molecular target: T2, TGF-β1 (Homo sapiens, UniProt P01137); assay: Plasmon surface resonance kinetic binding of TGF-β1 to FN domains; conditions: plasmon resonance
T2 sequence (P01137 279-390 limits assumed, species assumed): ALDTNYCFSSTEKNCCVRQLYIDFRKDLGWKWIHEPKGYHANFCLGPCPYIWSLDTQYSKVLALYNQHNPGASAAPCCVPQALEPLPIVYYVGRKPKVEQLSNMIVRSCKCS
From the text: as §1
(§2) To determine whether FN domains bind TGF-β1 and bFGF, equilibrium and kinetic binding was performed.

PDGF-BB [3] = molecular target: T1, PDGF-BB; assay: Equilibrium binding of PDGF-BB to FN, FN domains and peptides
From the text: (§3) This led us to speculate that PDGF was binding to the engineered ECM through the H or HV domain since vascular endothelial GF (VEGF), a member of the PDGF superfamily, had been reported to bind H and remain active while bound.
(§4) The survival of FN-null fibroblasts in the presence to PDGF-BB required substrate coated with intact FN or FNIII8-11+a PDGF-binding FN domain. […] To address this directly, we performed equilibrium binding assays with PDGF-BB to FN adsorbed to a surface or coupled to agarose beads. In addition, we also investigated the ability of other growth factors to bind intact FN.

FGF-2 = FGF-2 (Homo sapiens, UniProt P09038); assay: Plasmon resonance binding of FGF-2 to FN domains
Sequence of FGF-2 (P09038 143-288): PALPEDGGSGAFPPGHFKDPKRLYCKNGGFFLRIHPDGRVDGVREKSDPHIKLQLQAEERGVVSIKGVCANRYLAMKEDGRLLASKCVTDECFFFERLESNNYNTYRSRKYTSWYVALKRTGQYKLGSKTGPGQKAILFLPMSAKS
From the text: as §1

GFs = assay: Growth factor binding to FN domains (GFs in general)
From the text: as §3

human dermal fibroblasts = assay: Type 1 collagen production by fibroblasts on FN domain coated plates preincubated with TGF-β1; format: cell-based; conditions: for type 1 collagen production in response to preincubated TGF-β1: plates coated with FNIII8-11 alone or with the named domain
From the text: Therefore, we investigated whether it retained its activity while bound to recombinant FN functional domains. FNIII8-11 was adsorbed on plastic tissue culture dishes at a surface density to maximally affect the attachment and spreading of human dermal fibroblasts with or without the presence of adsorbed FNIII1-2. […] The maximum collagen secretion was approximately 25% of the amount observed when TGF-β1 remained in the medium at the concentrations indicated. […] The numbers of attached and spread cells were essentially identical when fibroblasts were cultures on plates coated with both FNIII8-11 and FNIII1-2 or FNIII8-11 alone. Similar data was obtained when fibroblasts were cultured on plates that had been coated with FNIII8-11 and FNIII12-V15 and then preincubated with TGF-β1.

ERK = ERK response to PDGF-BB in presence and absence of FNIII1-2; format: cell-based; conditions: preliminary results
Description: In preliminary results investigating signal transduction pathway activation of growth factors in the presence of FN GF-binding peptides, the response of ERK to PDGF-BB in the presence and absence of FNIII1-2 was studied. Without FNIII1-2, the ERK response to PDGF-BB was maximum at 20 minutes and gradually diminished over four hrs. In the presence of FNIII 1-2, the ERK response to PDGF-BB, was about 25% greater and sustained for at least four hours.

[4] = test system: mouse fibroblasts null for FN (FN−/−); assay: Survival of FN-null fibroblasts on FN domains with PDGF-BB; format: cell-based; conditions: for FN-null cell survival / proliferation with PDGF-BB: FNIII8-11 + the named domain, or named protein; for FN-null cell survival with PDGF: plastic precoated with 0.15 μM GST-tagged FNIII8-11 ± the named domain, or named protein, PDGF-BB added 1 day after plating, 3 days
From the text: To further investigate the response of cells to PDGF-BB bound to FN domains, we investigated the survival response of mouse fibroblasts null for FN (FN−/−). First we determined the response of FN-null cells to PDGF-BB in the absence of serum or other sources of exogenous FN. […] […] […] Importantly, differential response of FN-null cells, plated on different FN domains, to PDGF-BB was not secondary to differences in attachment as judged by cell counts two hours after plating. The FNIII8-11 central cell binding domain was present in all circumstances.

fibroblast chemotaxis = assay: Fibroblast chemotaxis to GFs in the presence or absence of FN domains; format: cell-based; conditions: in solution
Description: To determine whether FN functional domains modulated TGF-β1, bFGF or PDGF-BB activity in solution, fibroblast chemotaxis was performed in response to the GFs in the presence or absence of FN domains.

[5] = molecular target: PDGF-BB binding to FNIII1, FNIII12-14 and IIICS (Homo sapiens, UniProt P01127); assay: Inhibition of PDGF-BB binding to FN domains by FNIII1 peptides
Sequence of PDGF-BB binding to FNIII1, FNIII12-14 and IIICS (P01127 82-190 limits assumed): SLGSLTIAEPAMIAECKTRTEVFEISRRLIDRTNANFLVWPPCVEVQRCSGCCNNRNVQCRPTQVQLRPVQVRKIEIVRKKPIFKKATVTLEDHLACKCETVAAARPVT
From the text: Next, we determined if PDGF-BB-binding peptides from FNIII1 could inhibit PDGF-BB binding to FNIII1, FNIII12-14 and IIICS. For initial experiments we selected peptide 1 and peptide 2. For control, we used scrambled peptide 1.

TGF-β1 [6] = molecular target: T2, TGF-β1; assay: Equilibrium binding of TGF-β1 to FN, FN domains and peptides; conditions: equilibrium binding
Description: These peptides represent domains that follow the sequence pattern [QN]-X(1,2)-[ST]-X(0,1)-[IG]-[QS]-[KRQ]-[YTM]-[IG]-X(4,5)-X(0,1)-[KR]-X(1,2)-X(1,2)-[RT]-X(1,2)-[KQTS]-X(2)-T and that bind TGF-β1 with a certain affinity. […] We know of no other peptides in the human genome database that follow this pattern.
as §2

[7] = molecular target: bFGF binding to any recombinant FN domain (Homo sapiens, UniProt P09038); assay: Inhibition of bFGF binding to recombinant FN domains
Sequence of bFGF binding to any recombinant FN domain (P09038 134-288 limits assumed): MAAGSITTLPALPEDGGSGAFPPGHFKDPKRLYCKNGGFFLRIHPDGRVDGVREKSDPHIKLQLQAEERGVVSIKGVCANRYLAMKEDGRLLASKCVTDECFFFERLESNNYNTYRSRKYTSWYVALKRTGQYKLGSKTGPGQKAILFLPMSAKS

[8] = molecular target: TGF-β1 binding to any recombinant FN domain (Homo sapiens, UniProt P01137); assay: Inhibition of TGF-β1 binding to recombinant FN domains
Sequence of TGF-β1 binding to any recombinant FN domain (P01137 279-390 limits assumed): as the sequence (P01137 279-390 limits assumed, species assumed) above

FGF-1 = FGF-1 (Homo sapiens, UniProt P05230); assay: Binding of FGF-1 to FN, FN domains and peptides
Sequence of FGF-1 (P05230 whole entry, species assumed, the tested form may be a part): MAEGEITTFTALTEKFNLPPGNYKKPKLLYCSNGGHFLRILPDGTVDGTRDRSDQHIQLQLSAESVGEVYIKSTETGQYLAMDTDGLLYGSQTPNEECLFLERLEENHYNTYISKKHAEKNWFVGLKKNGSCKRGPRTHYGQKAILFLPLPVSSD
Description: as §4, §2

TGF-α = TGF-α (Homo sapiens, UniProt P01135); assay: Binding of TGF-α to FN, FN domains and peptides
Sequence of TGF-α (P01135 40-89 limits assumed, species assumed): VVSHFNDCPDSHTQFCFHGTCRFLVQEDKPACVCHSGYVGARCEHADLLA
Description: as §4, §2

EGF = EGF (Homo sapiens, UniProt P01133); assay: Binding of EGF to FN, FN domains and peptides
Sequence of EGF (P01133 971-1023 limits assumed, species assumed): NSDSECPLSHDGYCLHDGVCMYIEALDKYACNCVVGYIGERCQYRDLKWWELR
From the text: as §1, §4, §2

bFGF = bFGF (Homo sapiens, UniProt P09038); assay: Equilibrium binding of bFGF (FGF-2) to FN, FN domains and peptides; conditions: equilibrium binding, intact FN; read-out: KD, bFGF (FGF-2) binding
Sequence of bFGF (P09038 143-288): as the sequence (P09038 143-288) above
Description: as §4, §2

CCL-64 mink lung cells = assay: Inhibition of [3H]-thymidine incorporation by CCL-64 cells by FN-adhered TGF-β; format: cell-based

T1 sequence (P01127 82-190 limits assumed): as the sequence (P01127 82-190 limits assumed) above

| Substance | PDGF-BB binding (in words) (PDGF-BB [1]) | VEGF binding (in words) (VEGF) | TGF-β1 binding (in words) (TGF-β1 [2]) | PDGF-BB binding (in words) (PDGF-BB [3]) | FGF-2 binding (in words) (FGF-2) | also measured |
| --- | --- | --- | --- | --- | --- | --- |
| FN70: 70 kDa amino terminus of FN, includes fibrin and gelatin binding domains | None of the GFs detectably bound | None of the GFs detectably bound | None of the GFs detectably bound | did not | None of the GFs detectably bound | binding of any GF (in words) (GFs): In no case did any GF bind |
| FN630-667: one half of the 76 aa FNIII1 peptide FN630-704 |  |  |  | demonstrated PDGF-BB binding |  |  |
| FN668-704: one half of the 76 aa FNIII1 peptide FN630-704 |  |  |  | demonstrated PDGF-BB binding |  |  |
| FNIII1-2: recombinant FN type III repeats 1-2 | all four GFs bound | all four GFs bound | all four GFs bound |  | all four GFs bound | Kd (PDGF-BB [1]; kinetic binding): 9.1 nM; type 1 collagen production in response to preincubated TGF-β1 (human dermal fibroblasts): produced type 1 collagen in a dose response fashion; maximum collagen secretion, % of amount when TGF-β1 remained in the medium (human dermal fibroblasts; plates coated with FNIII8-11 and FNIII1-2, preincubated with TGF-β1): approximately 25%; ERK response to PDGF-BB, increase versus without FNIII1-2 (ERK): about 25%; duration of sustained ERK response to PDGF-BB (ERK): at least four; Kd (PDGF-BB [3]): 37 nM; FN-null cell survival / proliferation with PDGF-BB [4]: enhance survival; chemotactic activity when assayed alone (fibroblast chemotaxis): no chemotactic activity; enhancement of chemotactic activity of TGF-β1, bFGF and PDGF-BB (fibroblast chemotaxis): enhanced the chemotactic activity |
| FNIII1-11: recombinant FN type III repeats 1-11 | bound | did not | bound |  | did not | FN-null cell survival in the absence of PDGF-BB [4]: survived; FN-null cell survival / proliferation with PDGF-BB [4]: robust proliferation; FN-null cell survival with PDGF [4]: The best survival response |
| FNIII1: recombinant first FN type III repeat | all four GFs bound | all four GFs bound | all four GFs bound |  | all four GFs bound | FN-null cell survival with PDGF [4]: increased survival |
| FNIII2: recombinant second FN type III repeat | all four GFs bound | all four GFs bound | all four GFs bound |  | all four GFs bound |  |
| FNIII8-11: central cell-binding domain of FN containing RGD | None of the GFs detectably bound | None of the GFs detectably bound | None of the GFs detectably bound | did not | None of the GFs detectably bound | type 1 collagen production in response to preincubated TGF-β1 (human dermal fibroblasts): No increase in collagen synthesis; FN-null cell survival with PDGF [4]: failed to survive; support of FN-null fibroblast survival in the presence of PDGF-BB ([4]; substrate coating, FNIII8-11 alone or + named domain): did not support cell survival; binding of any GF (in words) (GFs): In no case did any GF bind |
| FNIII8-V15: FN type III repeats 8 to V15 |  |  |  |  |  | FN-null cell survival / proliferation with PDGF-BB [4]: robust proliferation |
| QLISIQQYGHQEVTRFDFTTTSTST [peptide 2] |  |  |  |  |  | inhibition of PDGF-BB binding to FNIII1, FNIII12-14 and IIICS [5]: neither peptide 2, nor the scramble varient of peptide 1 (FN634-658s), demonstrated inhibition |
| QPSHISKY (Synthetically generated peptide) [FN634-641, 8 aa peptide from FNIII1] |  |  |  |  |  | TGF-β1 binding (in words) (TGF-β1 [6]): minimal binding activity |
| QPSHISKYILRWRPKNSVGRWKEAT [peptide 1] |  |  |  |  |  | Kd (PDGF-BB [3]): 250 nM; inhibition of bFGF binding to any recombinant FN domain [7]: completely inhibited; inhibition of PDGF-BB binding to FNIII1, FNIII12-14 and IIICS [5]: marked inhibition; inhibition of TGF-β1 binding to any recombinant FN domain [8]: completely inhibited |
| anastellin: 76-aa peptide within FNIII1; anti-angiogenic, promotes FN polymerization | bound | all but VEGF bound | bound | demonstrated PDGF-BB binding | bound |  |
| fibronectin [intact FN] |  |  |  |  |  | FGF-1 binding (in words) (FGF-1): did not; TGF-α binding (in words) (TGF-α): did not; EGF binding (in words) (EGF): did not; Kd (bFGF): 44 nM; Kd (PDGF-BB [3]): 49 nM; FN-null cell survival / proliferation with PDGF-BB [4]: robust proliferation; functional activity of TGF-β adhered to FN (CCL-64 mink lung cells): retained full functional activity; Kd (TGF-β1 [6]): 53 nM |
